Experimental data as given in US7371553.
Like-named read-outs stand apart in the source and are kept apart here.

T1: succinyl-AAPF-p-nitroanilide
T1 sequence: AAPF

T2: suc-AAPR-pNA
T2 sequence: AAPR

T3: suc-AAPA-pNA
T3 sequence: AAPA

T4: suc-AAPE-pNA
T4 sequence: AAPE

T5: suc-AAPA-pNA
T5 chain: AAPA

T6: succinyl-AAPF-p-nitroanilide
T6 chain: AAPF

T7: suc-AAPR-pNA
T7 chain: AAPR

T8: suc-AAPE-pNA
T8 chain: AAPE


How the values were obtained:
[1] = system: T1, succinyl-AAPF-p-nitroanilide
suc-AAPR-pNA [2] = system: T2, suc-AAPR-pNA
suc-AAPA-pNA [3] = system: T3, suc-AAPA-pNA
suc-AAPE-pNA [4] = system: T4, suc-AAPE-pNA
suc-AAPA-pNA [5] = molecular target: T5, suc-AAPA-pNA
[6] = molecular target: T6, succinyl-AAPF-p-nitroanilide
suc-AAPR-pNA [7] = molecular target: T7, suc-AAPR-pNA
suc-AAPE-pNA [8] = molecular target: T8, suc-AAPE-pNA

| Molecule | KM [1] | also measured |
| --- | --- | --- |
| SBL L217C (unmodified cysteine mutant, R = H) | 800 µM |  |
| SBL L217C-S-n-pentyl | KM 0.52±0.05 mM |  |
| SBL L217C-a of Example 1 (sulfonatoethyl side chain) | 1800 µM |  |
| SBL L217C-a of Example 2 (aminoethyl side chain) | 640 µM |  |
| SBL L217C-b of Example 1 (4-carboxybutyl side chain) | 1030 µM |  |
| SBL L217C-b of Example 2 (2-(trimethylammonium)ethyl side chain) | 690 µM |  |
| SBL L217C-c of Example 1 (3,5-dicarboxybenzyl side chain) | 810 µM |  |
| SBL L217C-c of Example 2 (5,5-bis(aminomethyl)-3-oxo-hexyl side chain) | 2940 µM |  |
| SBL L217C-d of Example 1 (3,3-dicarboxybutyl side chain) | 1650 µM |  |
| SBL L217C-d of Example 2 (2,2-bis(aminomethyl)-3-aminopropyl side chain) | 2900 µM |  |
| SBL L217C-e of Example 1 (3,3,4-tricarboxybutyl side chain) | 1480 µM |  |
| SBL N62C (unmodified cysteine mutant, R = H) | 1900 µM |  |
| SBL N62C-S-benzyl | KM 0.34±0.03 mM |  |
| SBL N62C-S-ethyl | KM 0.55±0.04 mM |  |
| SBL N62C-S-n-pentyl | KM 0.75±0.05 mM |  |
| SBL N62C-a of Example 1 (sulfonatoethyl side chain) | 930 µM |  |
| SBL N62C-a of Example 2 (aminoethyl side chain) | 1000 µM |  |
| SBL N62C-b of Example 1 (4-carboxybutyl side chain) | 1010 µM |  |
| SBL N62C-b of Example 2 (2-(trimethylammonium)ethyl side chain) | 860 µM |  |
| SBL N62C-c of Example 1 (3,5-dicarboxybenzyl side chain) | 1000 µM |  |
| SBL N62C-c of Example 2 (5,5-bis(aminomethyl)-3-oxo-hexyl side chain) | 1060 µM |  |
| SBL N62C-d of Example 1 (3,3-dicarboxybutyl side chain) | 1470 µM |  |
| SBL N62C-d of Example 2 (2,2-bis(aminomethyl)-3-aminopropyl side chain) | 1170 µM |  |
| SBL N62C-e of Example 1 (3,3,4-tricarboxybutyl side chain) | 1460 µM |  |
| SBL S156C (unmodified cysteine mutant, R = H) | 850 µM |  |

| Molecule | KM [1] | also measured |
| --- | --- | --- |
| SBL S156C-S-benzyl | KM 0.59±0.05 mM |  |
| SBL S156C-a of Example 1 (sulfonatoethyl side chain) | 1200 µM |  |
| SBL S156C-a of Example 2 (aminoethyl side chain) | 730 µM |  |
| SBL S156C-b of Example 1 (4-carboxybutyl side chain) | 1080 µM |  |
| SBL S156C-b of Example 2 (2-(trimethylammonium)ethyl side chain) | 740 µM |  |
| SBL S156C-c of Example 1 (3,5-dicarboxybenzyl side chain) | 1390 µM |  |
| SBL S156C-c of Example 2 (5,5-bis(aminomethyl)-3-oxo-hexyl side chain) | 760 µM |  |
| SBL S156C-d of Example 1 (3,3-dicarboxybutyl side chain) | 1670 µM |  |
| SBL S156C-d of Example 2 (2,2-bis(aminomethyl)-3-aminopropyl side chain) | 810 µM |  |
| SBL S156C-e of Example 1 (3,3,4-tricarboxybutyl side chain) | 1870 µM |  |
| SBL S166C (unmodified cysteine mutant, R = H) | 500 µM |  |
| SBL S166C-(CH2)2NMe3+ | 1420 µM |  |
| SBL S166C-S-CH2(CH2)2CH2COO- | 1520 µM | KM (suc-AAPR-pNA [2]): 8200 µM; kcat/KM (suc-AAPR-pNA [2]): 41 M⁻¹ s⁻¹; ΔΔG‡T = RT ln[(kcat/KM)WT/(kcat/KM)CMM] (suc-AAPR-pNA [2]): S166C-S-h -0.37; kcat/KM [1]: 31000 M⁻¹ s⁻¹ |
| SBL S166C-S-CH2(CH2)8CH3 | 1090 µM | kcat/KM [1]: 75000 M⁻¹ s⁻¹; KM (suc-AAPA-pNA [3]): 1900 µM; kcat/KM (suc-AAPA-pNA [3]): 3600 M⁻¹ s⁻¹ |
| SBL S166C-S-CH2-c-C6H11 | 700 µM | kcat/KM [1]: 6900 M⁻¹ s⁻¹; KM (suc-AAPA-pNA [3]): 1900 µM; kcat/KM (suc-AAPA-pNA [3]): 14800 M⁻¹ s⁻¹ |
| SBL S166C-S-CH2C6H4-3,5-(COO-)2 | 1600 µM | KM (suc-AAPR-pNA [2]): 5500 µM; kcat/KM (suc-AAPR-pNA [2]): 120 M⁻¹ s⁻¹; ΔΔG‡T = RT ln[(kcat/KM)WT/(kcat/KM)CMM] (suc-AAPR-pNA [2]): S166C-S-d -1.00; kcat/KM [1]: 29000 M⁻¹ s⁻¹ |
| SBL S166C-S-CH2C6H5 | 1170 µM | kcat/KM [1]: 20000 M⁻¹ s⁻¹; KM (suc-AAPA-pNA [3]): 800 µM; kcat/KM (suc-AAPA-pNA [3]): 9000 M⁻¹ s⁻¹ |
| SBL S166C-S-CH2CH2C(CH3)(COO-)2 | 2260 µM | KM (suc-AAPR-pNA [2]): 5300 µM; kcat/KM (suc-AAPR-pNA [2]): 80 M⁻¹ s⁻¹; ΔΔG‡T = RT ln[(kcat/KM)WT/(kcat/KM)CMM] (suc-AAPR-pNA [2]): S166C-S-1-0.76; kcat/KM [1]: 30000 M⁻¹ s⁻¹ |
| SBL S166C-S-CH2CH2C(COO-)3 | 2460 µM | KM (suc-AAPR-pNA [2]): 5200 µM; kcat/KM (suc-AAPR-pNA [2]): 200 M⁻¹ s⁻¹; ΔΔG‡T = RT ln[(kcat/KM)WT/(kcat/KM)CMM] (suc-AAPR-pNA [2]): S166C-S-j -1.31; kcat/KM [1]: 31000 M⁻¹ s⁻¹ |
| SBL S166C-S-CH2CH2NH3+ | 680 µM | kcat/KM substrate screen (FIG. 10) (suc-AAPR-pNA [2]): the substrate screen (FIG. 10) shows that suc-AAPA-pNA and suc-AAPR-pNA are poorer substrates; kcat/KM [1]: 74000 M⁻¹ s⁻¹; KM (suc-AAPE-pNA [4]): 1900 µM; kcat/KM (suc-AAPE-pNA [4]): 7600 M⁻¹ s⁻¹; kcat/KM substrate screen (FIG. 10) (suc-AAPA-pNA [3]): the substrate screen (FIG. 10) shows that suc-AAPA-pNA and suc-AAPR-pNA are poorer substrates |
| SBL S166C-S-CH2CH2SO3- | 1340 µM | KM (suc-AAPR-pNA [2]): 3400 µM; kcat/KM (suc-AAPR-pNA [2]): 50 M⁻¹ s⁻¹; ΔΔG‡T = RT ln[(kcat/KM)WT/(kcat/KM)CMM] (suc-AAPR-pNA [2]): S166C-S-b -0.49; kcat/KM [1]: 19000 M⁻¹ s⁻¹ |
| SBL S166C-S-ethyl | KM0.76±0.08 mM |  |
| SBL S166C-c of Example 2 (5,5-bis(aminomethyl)-3-oxo-hexyl side chain) | 1270 µM |  |
| SBL S166C-d of Example 2 (2,2-bis(aminomethyl)-3-aminopropyl side chain) | 1160 µM |  |
| subtilisin Bacillus lentus, wild type (protein) AQSVPWGISRVQAPAAHNRGLTGSGVKVAVLDTGISTHPDLNIRGGASFVPGEPSTQDGNGHGTHVAGTIAALNNSIGVLGVAPSAELYAVKVLGASGSGSVSSIAQGLEWAGNNGMHVANLSLGSPSPSATLEQAVNSATSRGVLVVAASGNSGAGSISYPARYANAMAVGATDQNNNRASFSQYGAGLDIVAPGVNVQSTYPGSTYASLNGTSMATPHVAGAAALVKQKNPSWSNVQIRNHLKNTATSLGSTNLYGSGLVNAEAATR |  | KM (suc-AAPA-pNA [5]): 2000 µM; kcat/KM (suc-AAPA-pNA [5]): 8800 M⁻¹ s⁻¹; KM [6]: 730 µM; kcat/KM [6]: 209000 M⁻¹ s⁻¹; KM (suc-AAPR-pNA [7]): 7200 µM; kcat/KM (suc-AAPR-pNA [7]): 22 M⁻¹ s⁻¹; KM (suc-AAPE-pNA [8]): 4400 µM; kcat/KM (suc-AAPE-pNA [8]): 400 M⁻¹ s⁻¹ |
